This assay concerns the target CD19 on Namalwa cells (UniProt P15391). The assay is described as follows: cell-based or functional assay.
Sequence of UniProt P15391 (P15391 20-556 limits assumed): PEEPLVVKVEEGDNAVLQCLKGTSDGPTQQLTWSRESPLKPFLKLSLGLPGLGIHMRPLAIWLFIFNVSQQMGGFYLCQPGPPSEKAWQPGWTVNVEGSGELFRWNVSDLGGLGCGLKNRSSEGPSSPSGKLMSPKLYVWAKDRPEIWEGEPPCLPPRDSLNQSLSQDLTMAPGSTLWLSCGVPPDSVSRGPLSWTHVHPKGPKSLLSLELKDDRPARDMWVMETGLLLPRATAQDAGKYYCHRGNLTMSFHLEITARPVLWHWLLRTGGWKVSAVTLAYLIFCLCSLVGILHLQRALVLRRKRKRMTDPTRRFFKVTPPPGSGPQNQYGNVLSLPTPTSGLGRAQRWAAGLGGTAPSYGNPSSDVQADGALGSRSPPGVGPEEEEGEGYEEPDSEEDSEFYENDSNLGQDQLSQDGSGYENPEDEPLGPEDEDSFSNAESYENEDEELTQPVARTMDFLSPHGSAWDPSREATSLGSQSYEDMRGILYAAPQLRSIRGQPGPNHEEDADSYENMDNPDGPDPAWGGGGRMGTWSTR

In turn, “CD19-CAR (third generation anti-CD19 chimeric antigen receptor, from the lenti-EF1-CD19-3rd-CAR-eGFt plasmid, Creative Biolabs) on the surface of exosomes from CAR-T cells” showed a Co-culture killing assay; decrease of CD19+ cells incubated with EXO-CD19-CAR of 60% and a Cytotoxicity assay of EXO-CAR-T against tumor cells (Namalwa); CD19+ cells eliminated at 150 µg/mL EXO-CAR-T of 70%.
